Columns and labels:
[1] = target: human PD-1 (hPD-1) receptor expressed on cells (human) (UniProt Q15116); test: FACS, blockade of hPD-L1/Fc binding to CHO cells expressing human PD-1
[2] = target: human PD-1 (hPD-1) receptor expressed on cells (human) (UniProt Q15116); test: as above; remark: listed apart in the source
[3] = target: human PD-1 (hPD-1) receptor expressed on cells (human) (UniProt Q15116); test: FMAT, blockade of labeled hPD-L2/Fc binding to CHO-hPD-1 cells
[4] = target: hPD-1/Fc (R & D Systems) (human) (UniProt Q15116); test: protein ELISA, hPD-1/Fc immobilized
[5] = target: human PD-1 (hPD-1) receptor expressed on cells (human) (UniProt Q15116); test: FMAT, blockade of labeled hPD-L1/Fc binding to CHO-hPD-1 cells
[6] = target: hPD-1/Fc (R & D Systems) (human) (UniProt Q15116); test: bio-light interferometry (ForteBio Octet), PD-1/Fc on biosensor
[7] = target: human PD-1 (hPD-1) receptor expressed on cells (human) (UniProt Q15116); test: CELISA on CHO-hPD-1 cells

Chain of human PD-1 (hPD-1) receptor expressed on cells (human) (Q15116 25-288): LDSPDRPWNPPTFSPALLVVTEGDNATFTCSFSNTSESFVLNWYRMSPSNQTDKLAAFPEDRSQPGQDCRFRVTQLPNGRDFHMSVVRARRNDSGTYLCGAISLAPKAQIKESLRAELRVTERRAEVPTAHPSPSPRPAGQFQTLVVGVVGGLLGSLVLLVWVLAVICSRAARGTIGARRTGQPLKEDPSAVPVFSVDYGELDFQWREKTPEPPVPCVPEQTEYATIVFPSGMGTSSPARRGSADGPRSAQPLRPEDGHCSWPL
Chain of hPD-1/Fc (R & D Systems) (human) (Q15116 25-167 limits assumed): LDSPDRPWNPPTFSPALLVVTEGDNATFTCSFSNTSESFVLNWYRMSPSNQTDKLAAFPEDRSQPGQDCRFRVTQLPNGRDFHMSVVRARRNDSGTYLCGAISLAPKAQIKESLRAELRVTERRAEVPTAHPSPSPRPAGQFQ

IC50 [1]: > 100 nM
IC50 [2]: 0.106 nM
IC50 [3]: 0.044 nM
EC50 [4]: 0.41 nM
IC50 [5]: > 0.1 nM
Kd [6]: 1.82 nM
koff [6]: 0.00015 s⁻¹
kon [6]: 82400 M⁻¹ s⁻¹
EC50 [7]: 0.349 nM
Substance: Anti-PD-1 antibody clone J116 (eBioscience #14-9989)
